Measurements published in article PMC5383425, “Differential CLE peptide perception by plant receptors implicated from structural and functional analyses of TDIF-TDR interactions” (PLoS ONE, 2017).

B1: extracellular domain of A. thaliana TDR (residues 30-642) [modified: N-glycosylated at N111, N356, N378, N471 and N525 (one GlcNAc visible on each in the structures); N-glycosylated at N111, N356, N378, N471 and N525 (one … (parent)
chain 1: HEVPSGPNPISN
chain 2: LKFSPQLLSLLSLKTSLSGPPSAFQDWKVPVNGQNDAVWCSWSGVVCDNVTAQVISLDLSHRNLSGRIPIQIRYLSSLLYLNLSGNSLEGSFPTSIFDLTKLTTLDISRNSFDSSFPPGISKLKFLKVFNAFSNNFEGLLPSDVSRLRFLEELNFGGSYFEGEIPAAYGGLQRLKFIHLAGNVLGGKLPPRLGLLTELQHMEIGYNHFNGNIPSEFALLSNLKYFDVSNCSLSGSLPQELGNLSNLETLFLFQNGFTGEIPESYSNLKSLKLLDFSSNQLSGSIPSGFSTLKNLTWLSLISNNLSGEVPEGIGELPELTTLFLWNNNFTGVLPHKLGSNGKLETMDVSNNSFTGTIPSSLCHGNKLYKLILFSNMFEGELPKSLTRCESLWRFRSQNNRLNGTIPIGFGSLRNLTFVDLSNNRFTDQIPADFATAPVLQYLNLSTNFFHRKLPENIWKAPNLQIFSASFSNLIGEIPNYVGCKSFYRIELQGNSLNGTIPWDIGHCEKLLCLNLSQNHLNGIIPWEISTLPSIADVDLSHNLLTGTIPSDFGSSKTITTFNVSYNQLIGPIPSGSFAHLNPSFFSSNEGLCGDLVGKPCNSDRFNAGNADIDG

Variants of: B1
Assay: ITC
Settings: with Tracheary Element Differentiation Inhibitory Factor (TDIF) peptide [modified: hydroxyproline at 4 and 7, parent: 103 nM

Row | Variant | Kd
1 | chain 2 W324A | 862 nM
2 | chain 2 R392A R394A | 306 nM
3 | chain 2 Y205A | 1650 nM
4 | chain 2 S276A | 455 nM
5 | chain 2 F250A F252A | 887 nM
6 | chain 2 F250A | 307 nM
7 | chain 2 F252A | 787 nM
8 | chain 2 R109A F132A S133A S158A Y159A | 3240 nM

Same assay, conditions: with Tracheary Element Differentiation Inhibitory Factor (TDIF) peptide [modified: hydroxyproline at 4 and 7, parent: 1

Row | Variant | ratio to parent
9 | chain 2 Y205A | 16
10 | chain 2 F252A | 7.6

Same assay, conditions: with extracellular domain of A. thaliana TDR (residues 30-642) [modified: N-glycosylated at N111, N356, N378, N471 and N525 (one GlcNAc visible on each in the struct); parent: 103 nM

Row | Variant | Kd
11 | chain 1 HEAPSGPNPISN | 1400 nM
12 | chain 1 HRVPSGPNPISN | 543 nM
13 | chain 1 HEVPSTPNPISN | 2080 nM
14 | chain 1 HEVPSAPNPISN | 1440 nM
15 | chain 1 AAAPSGPNPISN | 252000 nM
16 | chain 1 REVPSGPNPISN | 329 nM
17 | chain 1 HAVPSGPNPISN | 327 nM
18 | chain 1 HEVPSGPNPASN | 641 nM
19 | chain 1 AEVPSGPNPISN | 11800 nM
20 | chain 1 HEVPSGPAPISN | 308 nM
21 | chain 1 HEVPSGPNPISA | 4700 nM

Same assay, conditions: with extracellular domain of A. thaliana TDR (residues 30-642) [modified: N-glycosylated at N111, N356, N378, N471 and N525 (one GlcNAc visible on each in the struct); parent: 1

Row | Variant | ratio to parent
22 | chain 1 AAAPSGPNPISN | 2450
23 | chain 1 HEVPSGPNPASN | 6.2
24 | chain 1 HEVPSGPNPISA | 45.6
